# T1: M1R-GLG3 (human M1 receptor) (Homo sapiens, UniProt P11229)
# T1 construct: 35; hM1R; RGLG-3; Gαq; 86, 87; FP-Gγ9; 3, 4; 11A, 11B; expressed in transfected cells; host or cells: HEK cells, transient
# T1 sequence (P11229 with tags, fused parts or gaps): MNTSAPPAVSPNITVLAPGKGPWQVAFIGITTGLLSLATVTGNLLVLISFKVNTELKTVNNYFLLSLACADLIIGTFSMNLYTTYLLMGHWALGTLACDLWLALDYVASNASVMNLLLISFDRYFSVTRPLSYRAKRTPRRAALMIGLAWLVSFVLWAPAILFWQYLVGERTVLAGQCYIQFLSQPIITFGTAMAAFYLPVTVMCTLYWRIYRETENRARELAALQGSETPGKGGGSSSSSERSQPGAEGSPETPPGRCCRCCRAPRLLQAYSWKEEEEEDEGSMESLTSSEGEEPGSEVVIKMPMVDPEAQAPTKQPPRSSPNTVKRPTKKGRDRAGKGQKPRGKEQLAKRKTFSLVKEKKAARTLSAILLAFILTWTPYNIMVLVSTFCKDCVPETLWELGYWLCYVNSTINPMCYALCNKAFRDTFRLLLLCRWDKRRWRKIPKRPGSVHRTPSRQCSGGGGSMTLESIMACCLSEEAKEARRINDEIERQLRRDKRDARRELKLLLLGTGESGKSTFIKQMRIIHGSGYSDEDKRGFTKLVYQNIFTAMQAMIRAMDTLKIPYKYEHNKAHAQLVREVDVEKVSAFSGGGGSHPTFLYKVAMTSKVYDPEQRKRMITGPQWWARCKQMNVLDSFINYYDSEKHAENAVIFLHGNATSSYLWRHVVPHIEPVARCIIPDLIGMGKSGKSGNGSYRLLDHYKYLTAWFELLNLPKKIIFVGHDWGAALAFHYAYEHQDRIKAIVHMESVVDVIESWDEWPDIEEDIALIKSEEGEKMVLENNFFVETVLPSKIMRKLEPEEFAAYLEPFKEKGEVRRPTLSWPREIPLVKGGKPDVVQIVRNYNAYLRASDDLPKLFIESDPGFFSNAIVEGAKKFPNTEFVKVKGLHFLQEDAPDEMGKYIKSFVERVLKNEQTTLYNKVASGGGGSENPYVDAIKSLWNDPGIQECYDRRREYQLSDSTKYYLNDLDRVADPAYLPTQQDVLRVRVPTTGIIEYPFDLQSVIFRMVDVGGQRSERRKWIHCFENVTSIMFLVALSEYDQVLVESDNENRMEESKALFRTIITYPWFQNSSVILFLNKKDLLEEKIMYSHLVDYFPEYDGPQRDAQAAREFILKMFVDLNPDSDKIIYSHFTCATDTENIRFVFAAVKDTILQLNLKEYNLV
# T2: hM1R fused to split Gαq harbouring a luminescent protein (type RGLG-3)
# T2 chain: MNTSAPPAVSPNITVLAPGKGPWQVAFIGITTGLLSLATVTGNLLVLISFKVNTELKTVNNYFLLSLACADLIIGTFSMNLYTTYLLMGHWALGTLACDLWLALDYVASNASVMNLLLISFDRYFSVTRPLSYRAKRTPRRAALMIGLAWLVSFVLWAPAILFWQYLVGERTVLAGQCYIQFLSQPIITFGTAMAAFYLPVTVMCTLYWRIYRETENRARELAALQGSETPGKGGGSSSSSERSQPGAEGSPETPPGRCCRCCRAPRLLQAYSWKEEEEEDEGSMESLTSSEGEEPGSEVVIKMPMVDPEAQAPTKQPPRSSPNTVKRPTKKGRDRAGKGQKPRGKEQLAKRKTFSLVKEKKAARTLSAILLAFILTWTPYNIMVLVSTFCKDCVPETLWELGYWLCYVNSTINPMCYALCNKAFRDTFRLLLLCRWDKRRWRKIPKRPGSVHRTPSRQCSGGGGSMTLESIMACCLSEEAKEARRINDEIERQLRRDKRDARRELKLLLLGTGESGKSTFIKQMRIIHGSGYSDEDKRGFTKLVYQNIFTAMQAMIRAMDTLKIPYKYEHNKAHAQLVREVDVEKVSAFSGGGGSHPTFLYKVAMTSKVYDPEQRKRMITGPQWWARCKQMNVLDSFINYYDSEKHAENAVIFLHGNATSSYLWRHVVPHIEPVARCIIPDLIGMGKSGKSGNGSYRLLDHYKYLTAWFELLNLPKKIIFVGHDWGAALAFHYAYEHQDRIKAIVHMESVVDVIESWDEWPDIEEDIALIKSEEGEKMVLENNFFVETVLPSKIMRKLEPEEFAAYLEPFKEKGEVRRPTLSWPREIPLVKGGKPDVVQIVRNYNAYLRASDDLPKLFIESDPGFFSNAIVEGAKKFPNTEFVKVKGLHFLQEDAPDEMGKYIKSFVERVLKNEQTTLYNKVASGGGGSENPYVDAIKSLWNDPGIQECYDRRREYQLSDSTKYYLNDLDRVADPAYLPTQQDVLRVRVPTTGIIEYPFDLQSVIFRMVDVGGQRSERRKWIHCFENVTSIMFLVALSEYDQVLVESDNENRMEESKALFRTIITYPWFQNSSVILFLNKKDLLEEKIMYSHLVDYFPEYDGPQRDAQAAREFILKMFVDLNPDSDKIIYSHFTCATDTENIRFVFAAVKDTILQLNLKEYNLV
# T3: hM4-R-Gαo^1-91-Luciferase-Gαo^92-354 fusion protein (type RGLG-2)
# T3 chain: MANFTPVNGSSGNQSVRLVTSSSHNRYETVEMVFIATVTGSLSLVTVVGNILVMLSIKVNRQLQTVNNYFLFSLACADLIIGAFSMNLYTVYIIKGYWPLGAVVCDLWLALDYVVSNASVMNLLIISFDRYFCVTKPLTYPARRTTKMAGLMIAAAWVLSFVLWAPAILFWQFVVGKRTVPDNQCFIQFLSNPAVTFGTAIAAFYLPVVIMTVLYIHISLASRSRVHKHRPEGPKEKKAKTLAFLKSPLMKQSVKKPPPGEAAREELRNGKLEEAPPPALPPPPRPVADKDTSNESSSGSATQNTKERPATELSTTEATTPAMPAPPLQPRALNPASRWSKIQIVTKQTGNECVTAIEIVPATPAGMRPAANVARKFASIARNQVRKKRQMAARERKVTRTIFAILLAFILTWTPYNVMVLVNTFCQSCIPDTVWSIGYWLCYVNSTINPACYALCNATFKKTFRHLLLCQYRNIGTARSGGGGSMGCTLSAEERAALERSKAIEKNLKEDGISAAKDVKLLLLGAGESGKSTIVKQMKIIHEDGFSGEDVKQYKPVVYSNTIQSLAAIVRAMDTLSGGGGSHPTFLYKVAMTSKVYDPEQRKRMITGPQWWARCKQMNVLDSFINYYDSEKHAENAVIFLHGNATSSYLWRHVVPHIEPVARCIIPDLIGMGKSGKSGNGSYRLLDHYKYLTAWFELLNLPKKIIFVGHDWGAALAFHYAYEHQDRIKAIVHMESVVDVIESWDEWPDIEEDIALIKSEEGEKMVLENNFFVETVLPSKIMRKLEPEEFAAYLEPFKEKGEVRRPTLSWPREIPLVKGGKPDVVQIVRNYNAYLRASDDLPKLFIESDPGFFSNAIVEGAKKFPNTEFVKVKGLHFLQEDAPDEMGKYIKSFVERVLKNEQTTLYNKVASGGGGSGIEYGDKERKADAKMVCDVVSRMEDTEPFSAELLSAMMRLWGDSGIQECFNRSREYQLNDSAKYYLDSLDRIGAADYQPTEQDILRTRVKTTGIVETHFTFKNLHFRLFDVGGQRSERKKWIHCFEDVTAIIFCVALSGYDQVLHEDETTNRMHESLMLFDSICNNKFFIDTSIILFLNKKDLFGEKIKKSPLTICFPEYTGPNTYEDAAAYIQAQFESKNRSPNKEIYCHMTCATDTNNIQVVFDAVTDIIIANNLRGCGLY
# B1: Bordetella pertussis toxin (protein)
# chain: DDPPATVYRYDSRPPEDVFQNGFTAWGNNDNVLDHLTGRSCQVGSSNSAFVSTSSSRRYTEVYLEHRMQEAVEAERAGRGTGHFIGYIYEVRADNNFYGAASSYFEYVDTYGDNAGRILAGALATYQSEYLAHRRIPPENIRRVTRVYHNGITGETTTTEYSNARYVSQQTRANPNPYTSRRSVASIVGTLVRMAPVIGACMARQAESSEAMAAWSERAGEAMVLVYYESIAYSF
# Tests used:
# [1] = target: T4, chimeric M4R (RGLG-2) (Homo sapiens, UniProt P08173); assay: BRET assay of the invention, cells co-expressing chimeric M4R (RGLG-2) and FP-Gγ9; format: cell-based; conditions: cells incubated over night with 100 ng/ml PTX
# T4 construct: ID; NOs; expressed in transfected cells
# Experimental: The same cells as described for FIG. 10 A were used. […] The decrease of the signal below baseline in the PTX-treated condition confirms a constitutive activity that has been described for the M4R. […]
# A typical experiment has the following sequence.
# The assay of the present invention was compared with a state of the art calcium based assay. […] In calcium-based assay, a calcium flux is measured in cells co-expressing recombinant M4R and modified Gαq. In the assay in accordance with the present invention, BRET in measured in cells co-expressing a chimeric M4R according to RGLG-2 (construct and cell-line from FIG. 2C, Table 6) and FP-Gγ9 (as described in FIG. 10A). The data represent mean values and they are normalized to the maximal effect of the orthosteric agonist after the subtraction of the basal values.
# [2] = target: T5, M4R RGLG-2 with Gαo C351S (Homo sapiens, UniProt P08173+P09471, C351S); assay: BRET assay, chimeric M4R with PTX-insensitive mutant (C351S) of Gαo in the RGLG-2 fusion construct; format: cell-based; conditions: same conditions as FIG. 10B
# T5 construct: ID; NOs; expressed in transfected cells
# T5 sequence (P08173+P09471 fused P09471:C351S): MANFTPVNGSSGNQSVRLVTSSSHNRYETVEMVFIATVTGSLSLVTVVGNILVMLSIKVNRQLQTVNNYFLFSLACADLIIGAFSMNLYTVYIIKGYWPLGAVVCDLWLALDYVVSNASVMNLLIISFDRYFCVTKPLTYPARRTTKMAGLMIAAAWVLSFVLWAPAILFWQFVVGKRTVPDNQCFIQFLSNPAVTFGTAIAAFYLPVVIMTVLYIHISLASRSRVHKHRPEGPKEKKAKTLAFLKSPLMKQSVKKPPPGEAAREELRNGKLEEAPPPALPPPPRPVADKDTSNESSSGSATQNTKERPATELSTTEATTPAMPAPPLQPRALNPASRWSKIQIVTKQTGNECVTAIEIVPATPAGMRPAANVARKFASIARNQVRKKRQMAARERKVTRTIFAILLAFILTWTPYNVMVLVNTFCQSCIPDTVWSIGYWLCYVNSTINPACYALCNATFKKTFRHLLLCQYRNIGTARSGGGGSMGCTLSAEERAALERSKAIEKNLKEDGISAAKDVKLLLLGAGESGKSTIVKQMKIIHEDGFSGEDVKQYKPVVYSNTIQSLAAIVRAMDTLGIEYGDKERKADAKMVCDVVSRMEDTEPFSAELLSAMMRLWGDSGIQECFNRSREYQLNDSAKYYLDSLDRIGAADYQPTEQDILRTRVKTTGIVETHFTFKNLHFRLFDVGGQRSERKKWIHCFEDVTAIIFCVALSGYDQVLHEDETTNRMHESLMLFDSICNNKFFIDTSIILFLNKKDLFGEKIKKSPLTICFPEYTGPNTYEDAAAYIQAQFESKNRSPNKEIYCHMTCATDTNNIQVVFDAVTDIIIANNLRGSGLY
# Experimental: Cells lines were prepared as described above (Examples 13-34).
# [3] = target: human M1 receptor (M1R) RGLG-3 (Homo sapiens, UniProt P11229)
# Experimental: Cells co-express a construct comprising a human M1 receptor (M1R) fused to a split Gαq protein harboring a luminescent protein (construct RGLG-3, FIG. 2C, Table 6) and the FP-Gγ9 construct (as above).
# 5 or 10 minutes after the addition of coelenterazine H to the cells, the read plate is placed in the FLIPR tetra and the measurement begins.
# A second plate is a compound plate, containing a mix of an agonist at its EC20 or EC80 and candidate agents to be tested if the protocol run on the FLIPR tetra is a one-addition (or co-addition) protocol (as in FIGS. 3A, 3B, 4, 5A, 6, 7B, 7C, 10B, 10C, 11B, 13, 14, 19 and 20). Alternatively, a two-addition protocol can be run on the FLIPR tetra, containing two compound plates, of which the first one usually contains different candidate agents and the second one an agonist at its EC20 or EC80 (as in FIGS. 5B, 5C, 7A, 9, 10A, 11A, 12, 15, 16, and 18). […]
# The camera is adjusted in such a way that the gain is set to a maximum of 28,000× and the shutters are opened 100%. […] The read interval (emission filter 1, emission filter 2) is adjusted to the minimal value that results from the addition of the two exposure times (=2×0.1 to 3 seconds) plus the time needed to move the filters from position 1 to position 2 (0.3 sec), resulting in a maximal read frequency of 0.5 seconds (2 Hz). […]
# [4] = target: T6, GLP1R-L-G (human GLP-1 receptor) (Homo sapiens, UniProt P43220); assay: BRET assay, HEK cells transiently co-transfected with GLP1R-L-G and a Gγ construct; format: cell-based; conditions: cells coexpressing GLP1R-L-G and the Gγ construct, exposed to GLP-1
# T6 construct: ID; expressed in transfected cells; host or cells: HEK cells, transient
# T6 sequence (P43220 with tags, fused parts or gaps): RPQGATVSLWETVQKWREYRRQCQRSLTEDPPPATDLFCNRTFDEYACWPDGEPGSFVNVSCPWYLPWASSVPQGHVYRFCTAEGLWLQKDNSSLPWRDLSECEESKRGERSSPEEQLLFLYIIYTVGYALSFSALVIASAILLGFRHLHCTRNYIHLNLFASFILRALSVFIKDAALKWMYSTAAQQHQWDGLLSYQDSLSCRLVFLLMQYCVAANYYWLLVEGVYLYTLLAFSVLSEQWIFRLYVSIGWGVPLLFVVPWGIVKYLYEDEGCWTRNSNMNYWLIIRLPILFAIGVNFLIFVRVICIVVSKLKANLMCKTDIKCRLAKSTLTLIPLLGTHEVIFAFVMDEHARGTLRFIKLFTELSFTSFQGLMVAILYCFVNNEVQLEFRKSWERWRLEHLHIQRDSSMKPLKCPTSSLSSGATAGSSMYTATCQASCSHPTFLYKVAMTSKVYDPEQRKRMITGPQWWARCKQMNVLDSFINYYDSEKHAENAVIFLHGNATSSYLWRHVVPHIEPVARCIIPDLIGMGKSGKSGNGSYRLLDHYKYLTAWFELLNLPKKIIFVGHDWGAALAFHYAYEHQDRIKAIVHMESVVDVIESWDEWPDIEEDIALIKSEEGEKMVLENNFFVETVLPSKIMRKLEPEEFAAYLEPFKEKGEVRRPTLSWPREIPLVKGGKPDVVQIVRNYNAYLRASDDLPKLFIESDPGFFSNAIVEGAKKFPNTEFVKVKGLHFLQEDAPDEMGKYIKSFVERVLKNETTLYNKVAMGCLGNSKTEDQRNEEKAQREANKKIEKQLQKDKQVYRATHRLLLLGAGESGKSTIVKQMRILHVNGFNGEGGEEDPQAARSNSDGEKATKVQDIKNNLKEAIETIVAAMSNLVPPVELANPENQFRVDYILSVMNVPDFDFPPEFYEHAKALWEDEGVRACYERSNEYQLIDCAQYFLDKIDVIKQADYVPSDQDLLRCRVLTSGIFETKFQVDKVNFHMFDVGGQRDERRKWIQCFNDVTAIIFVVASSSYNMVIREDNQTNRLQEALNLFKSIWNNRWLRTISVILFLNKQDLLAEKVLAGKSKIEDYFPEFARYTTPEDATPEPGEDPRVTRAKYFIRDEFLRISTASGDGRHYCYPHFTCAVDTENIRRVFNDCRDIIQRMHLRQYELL
# [5] = target: T7, GIPR-L-G (human GIP receptor) (Homo sapiens, UniProt P48546); assay: BRET assay, HEK cells transiently co-transfected with GIPR-L-G and a Gγ construct; format: cell-based; conditions: cells coexpressing GIPR-L-G and the Gγ construct, exposed to GIP
# T7 construct: ID; NOs; expressed in transfected cells; host or cells: HEK cells, transient
# T7 sequence (P48546 with tags, fused parts or gaps): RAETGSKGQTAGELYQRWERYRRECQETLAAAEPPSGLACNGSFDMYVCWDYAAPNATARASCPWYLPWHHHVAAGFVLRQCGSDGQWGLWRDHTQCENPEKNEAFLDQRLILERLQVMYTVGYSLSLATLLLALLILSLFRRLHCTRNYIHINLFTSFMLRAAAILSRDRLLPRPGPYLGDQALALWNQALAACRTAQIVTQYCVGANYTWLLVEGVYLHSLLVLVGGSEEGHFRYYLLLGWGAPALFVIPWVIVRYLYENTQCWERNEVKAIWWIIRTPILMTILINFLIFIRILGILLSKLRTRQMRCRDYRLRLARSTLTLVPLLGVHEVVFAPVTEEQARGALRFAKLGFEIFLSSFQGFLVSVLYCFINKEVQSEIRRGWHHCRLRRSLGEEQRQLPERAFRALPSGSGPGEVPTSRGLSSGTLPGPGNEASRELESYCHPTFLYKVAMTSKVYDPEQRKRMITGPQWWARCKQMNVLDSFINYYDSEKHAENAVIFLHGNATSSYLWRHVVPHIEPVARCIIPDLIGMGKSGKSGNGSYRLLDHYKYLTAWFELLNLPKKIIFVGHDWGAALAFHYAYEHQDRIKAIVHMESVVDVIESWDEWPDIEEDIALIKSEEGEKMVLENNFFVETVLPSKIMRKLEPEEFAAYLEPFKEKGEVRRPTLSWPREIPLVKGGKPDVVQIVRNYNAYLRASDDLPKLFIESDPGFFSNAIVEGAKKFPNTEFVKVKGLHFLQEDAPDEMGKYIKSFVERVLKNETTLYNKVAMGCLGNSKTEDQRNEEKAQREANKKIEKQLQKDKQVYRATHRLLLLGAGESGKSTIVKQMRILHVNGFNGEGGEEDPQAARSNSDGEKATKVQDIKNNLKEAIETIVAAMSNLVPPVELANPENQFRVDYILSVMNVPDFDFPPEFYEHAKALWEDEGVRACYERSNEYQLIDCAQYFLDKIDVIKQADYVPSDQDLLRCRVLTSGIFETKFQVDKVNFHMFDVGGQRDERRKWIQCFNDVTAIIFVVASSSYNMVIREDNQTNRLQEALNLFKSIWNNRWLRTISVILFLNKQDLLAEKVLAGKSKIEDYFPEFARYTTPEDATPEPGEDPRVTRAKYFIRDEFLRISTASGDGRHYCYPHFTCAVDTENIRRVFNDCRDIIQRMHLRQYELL
# [6] = target: T8, M4R-GLG2 (human muscarinic acetylcholine receptor M4) (Homo sapiens, UniProt P08173); assay: BRET assay, HEK cells transiently co-transfected with M4R-GLG2 and a Gγ construct; format: cell-based; parameters: key to the marks not given beside the values; conditions: cells coexpressing M4R-GLG2 and the Gγ construct, exposed to ACh
# T8 construct: ID; NOs; expressed in transfected cells; host or cells: HEK cells, transient
# [7] = target: T9, A2AR-RGL (human A2A receptor) (Homo sapiens, UniProt P29274); assay: BRET assay, HEK cells transiently co-transfected with A2AR-RGL and a Gγ construct; format: cell-based; parameters: key to the marks not given beside the values; conditions: cells coexpressing A2AR-RGL and the Gγ construct, exposed to Adenosine
# T9 construct: ID; NOs; expressed in transfected cells; host or cells: HEK cells, transient
# [8] = target: T10, GCGR-RLG (glucagon receptor) (Homo sapiens, UniProt P47871); assay: BRET assay, HEK cells transiently co-transfected with GCGR-RLG and a Gγ construct; format: cell-based; parameters: key to the marks not given beside the values; conditions: cells coexpressing GCGR-RLG and the Gγ construct, exposed to Glucagon
# T10 construct: 39; GCGR; RLG; Gαs; 94, 95; FP-Gγ9; 3, 4; 15; expressed in transfected cells; host or cells: HEK cells, transient
# [9] = target: T11, GHSR-RLG (hGHSR) (Homo sapiens, UniProt Q92847); assay: BRET assay, HEK cells transiently co-transfected with GHSR-RLG and a Gγ construct; format: cell-based; parameters: key to the marks not given beside the values; conditions: cells coexpressing GHSR-RLG and the Gγ construct, exposed to Ghrelin
# T11 construct: 37; hGHSR; RLG; Gαq; 90, 91; FP-Gγ9; 3, 4; 13; expressed in transfected cells; host or cells: HEK cells, transient
# T11 sequence (Q92847 with tags, fused parts or gaps): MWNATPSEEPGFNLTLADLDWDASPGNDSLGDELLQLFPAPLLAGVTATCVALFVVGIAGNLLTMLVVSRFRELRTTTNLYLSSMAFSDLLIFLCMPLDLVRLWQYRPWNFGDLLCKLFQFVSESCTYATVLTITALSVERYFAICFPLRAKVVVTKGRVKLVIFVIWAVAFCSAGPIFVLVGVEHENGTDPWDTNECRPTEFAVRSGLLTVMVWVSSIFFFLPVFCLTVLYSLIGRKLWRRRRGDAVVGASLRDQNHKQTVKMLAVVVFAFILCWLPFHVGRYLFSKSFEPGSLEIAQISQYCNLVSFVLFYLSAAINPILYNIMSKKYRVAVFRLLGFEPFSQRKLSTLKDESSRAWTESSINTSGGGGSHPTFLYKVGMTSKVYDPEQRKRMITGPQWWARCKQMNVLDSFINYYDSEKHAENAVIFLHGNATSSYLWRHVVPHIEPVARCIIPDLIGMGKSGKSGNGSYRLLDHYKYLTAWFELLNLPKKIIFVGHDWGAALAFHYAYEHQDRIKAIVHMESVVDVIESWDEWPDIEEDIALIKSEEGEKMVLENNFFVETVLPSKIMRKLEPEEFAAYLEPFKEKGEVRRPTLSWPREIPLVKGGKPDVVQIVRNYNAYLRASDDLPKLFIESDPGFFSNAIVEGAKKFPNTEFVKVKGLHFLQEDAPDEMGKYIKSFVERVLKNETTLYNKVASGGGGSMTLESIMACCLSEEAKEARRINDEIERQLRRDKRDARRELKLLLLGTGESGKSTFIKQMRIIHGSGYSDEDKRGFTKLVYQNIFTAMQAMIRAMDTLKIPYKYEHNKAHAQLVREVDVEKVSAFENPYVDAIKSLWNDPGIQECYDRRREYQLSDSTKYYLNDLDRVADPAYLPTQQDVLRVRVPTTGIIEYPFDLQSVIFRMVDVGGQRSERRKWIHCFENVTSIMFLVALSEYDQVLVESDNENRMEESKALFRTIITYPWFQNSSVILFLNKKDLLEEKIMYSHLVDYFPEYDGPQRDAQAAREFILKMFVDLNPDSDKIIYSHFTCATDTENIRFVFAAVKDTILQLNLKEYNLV
# [10] = target: T1, M1R-GLG3 (human M1 receptor); assay: BRET assay, HEK cells transiently co-transfected with M1R-GLG3 and a Gγ construct; format: cell-based; parameters: key to the marks not given beside the values; conditions: cells coexpressing M1R-GLG3 and the Gγ construct, exposed to Acetylcholin
# [11] = target: T2, hM1R fused to split Gαq harbouring a …
# [12] = target: hM4-R RGLG-2 fusion construct with the PTX-insensitive mutant (C351S) of Gαo
# [13] = target: T3, hM4-R-Gαo^1-91-Luciferase-Gαo^92-354 …
molecule,measurement,setting,value
PTX,effect on BRET signal changes in response to Ach,[1],effectively blocks the BRET signal changes
same,"effect on BRET signal changes in response to Ach, C351S Gαo mutant",[2],rescued by the C351S substitution
same,effect on BRET signal changes in response to Ach,[3],no effect on the BRET signal changes
"Gγ9-FP: fusion protein of human G-protein gamma9 and yellow fluorescent protein YPet, SEQ. ID. NOs. 5, 6",HTS compat.,[4],+
same,HTS compat.,[5],+
"FP-Gγ9: fusion protein of yellow fluorescent protein YPet and human G-protein gamma9, SEQ. ID. NOs. 3, 4",HTS compat.,[4],++
same,HTS compat.,[6],++
same,HTS compat.,[5],++
same,HTS compat.,[7],++
same,HTS compat.,[8],++
same,HTS compat.,[9],++
same,HTS compat.,[10],++
B1,BRET signal change in response to acetylcholine after overnight incubation with PTX,[11],shows no effect on the BRET signal changes obtained in response to Ach
same,BRET signal change in response to acetylcholine after overnight incubation with PTX,[12],The Gαo-inhibiting effects of PTX are rescued by the C351S substitution
same,BRET signal change in response to acetylcholine after overnight incubation with 100 ng/ml PTX,[13],PTX effectively blocks the BRET signal changes compared to the non-PTX treated condition

# Reference: US20130035256A1, “Chimeric Polypeptides Useful in Proximal and Dynamic High-Throughput Screening Methods” (ADDEX PHARMA SA, priority 2010, published 2013)
